Measurements as given in article PMC6021441, “Structural basis of the correct subunit assembly, aggregation, and intracellular degradation of nylon hydrolase” (Scientific Reports, 2018).

How the values were obtained:
Experiment in all cases: crystal structure; sitting-drop vapor diffusion, ammonium sulfate, 0.1 M HEPES pH 7.5, 0.2 M NaCl, 25% glycerol; space group C222_(1), two molecules (A/B dimer) in the asymmetric unit, tetramer by the crystallographic two-fold axis
Details in all cases: both partners purified
[1] = molecular target: T1, NylCp2-Y^130 alpha subunit (H130Y) (Arthrobacter, UniProt Q79F77 1-266, H130Y)
T1 construct: NylCp2 alpha subunit with H130Y; also called α subunit of NylCp2-Y^130; source: E. coli JM109, purified with the beta subunit as the active enzyme
T1 sequence (looked up): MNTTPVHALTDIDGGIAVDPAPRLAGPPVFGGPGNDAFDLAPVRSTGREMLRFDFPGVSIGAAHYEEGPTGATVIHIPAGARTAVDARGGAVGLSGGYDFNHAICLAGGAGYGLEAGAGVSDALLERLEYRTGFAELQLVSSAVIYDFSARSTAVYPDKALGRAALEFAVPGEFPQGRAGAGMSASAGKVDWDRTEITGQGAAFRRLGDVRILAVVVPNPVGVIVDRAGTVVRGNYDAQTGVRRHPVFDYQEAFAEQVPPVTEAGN

[2] = molecular target: T2, NylCp2-R^122 alpha subunit (D122R) (Arthrobacter, UniProt Q79F77 1-266, D122R)
T2 construct: NylCp2 alpha subunit with D122R; also called α subunit of NylCp2-R^122; source: E. coli JM109, purified with the beta subunit as the active enzyme
T2 sequence (looked up): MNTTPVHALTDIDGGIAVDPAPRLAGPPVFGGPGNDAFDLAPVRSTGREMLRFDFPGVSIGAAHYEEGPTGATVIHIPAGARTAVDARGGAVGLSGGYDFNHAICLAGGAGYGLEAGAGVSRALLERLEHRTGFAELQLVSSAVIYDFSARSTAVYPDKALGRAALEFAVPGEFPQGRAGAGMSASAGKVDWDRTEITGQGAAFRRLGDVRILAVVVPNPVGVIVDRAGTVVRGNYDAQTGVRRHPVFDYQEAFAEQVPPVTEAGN

[3] = molecular target: T3, NylCp2-V^122 alpha subunit (D122V) (Arthrobacter, UniProt Q79F77 1-266, D122V)
T3 construct: NylCp2 alpha subunit with D122V; also called α subunit of NylCp2-V^122; source: E. coli JM109, purified with the beta subunit as the active enzyme
T3 sequence (looked up): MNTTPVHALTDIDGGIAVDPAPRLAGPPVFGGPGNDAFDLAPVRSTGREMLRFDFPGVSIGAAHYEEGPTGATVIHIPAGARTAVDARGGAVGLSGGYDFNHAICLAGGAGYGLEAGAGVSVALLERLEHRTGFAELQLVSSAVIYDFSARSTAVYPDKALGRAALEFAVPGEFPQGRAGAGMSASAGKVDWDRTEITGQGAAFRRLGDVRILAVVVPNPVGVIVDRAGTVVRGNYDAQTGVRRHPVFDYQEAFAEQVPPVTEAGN

[4] = molecular target: T4, NylCp2-K^122 alpha subunit (D122K) (Arthrobacter, UniProt Q79F77 1-266, D122K)
T4 construct: NylCp2 alpha subunit with D122K; also called α subunit of NylCp2-K^122; source: E. coli JM109, purified with the beta subunit as the active enzyme
T4 sequence (looked up): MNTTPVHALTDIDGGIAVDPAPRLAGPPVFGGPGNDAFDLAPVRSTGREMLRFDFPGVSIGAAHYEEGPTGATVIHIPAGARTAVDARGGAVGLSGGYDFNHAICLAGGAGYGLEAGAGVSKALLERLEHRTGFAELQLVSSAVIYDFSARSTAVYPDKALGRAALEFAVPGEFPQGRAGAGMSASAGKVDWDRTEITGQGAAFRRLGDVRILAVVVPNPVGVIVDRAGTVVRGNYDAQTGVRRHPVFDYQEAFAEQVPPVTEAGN

[5] = molecular target: T5, NylCp2 alpha subunit (27 kDa), wild type (Arthrobacter, UniProt Q79F77 1-266)
T5 construct: NylCp2, alpha subunit made by autocleavage of the 355-residue precursor between Asn266 and Thr267; also called α subunit; source: E. coli JM109, purified with the beta subunit as the active enzyme
T5 sequence (looked up): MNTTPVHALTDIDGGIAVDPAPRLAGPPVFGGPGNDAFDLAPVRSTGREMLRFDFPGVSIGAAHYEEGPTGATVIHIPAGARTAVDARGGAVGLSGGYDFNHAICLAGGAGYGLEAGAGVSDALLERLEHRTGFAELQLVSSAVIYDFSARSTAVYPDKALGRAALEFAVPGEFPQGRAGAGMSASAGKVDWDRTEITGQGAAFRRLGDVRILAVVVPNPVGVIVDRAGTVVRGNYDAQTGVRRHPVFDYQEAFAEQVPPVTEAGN

[6] = molecular target: T6, NylCp2-G^122Y^130 alpha subunit (D122G/H130Y) (Arthrobacter, UniProt Q79F77 1-266, D122G | H130Y)
T6 construct: NylCp2 alpha subunit with D122G and H130Y; also called α subunit of NylCp2-G^122Y^130; source: E. coli JM109, purified with the beta subunit as the active enzyme
T6 sequence (looked up): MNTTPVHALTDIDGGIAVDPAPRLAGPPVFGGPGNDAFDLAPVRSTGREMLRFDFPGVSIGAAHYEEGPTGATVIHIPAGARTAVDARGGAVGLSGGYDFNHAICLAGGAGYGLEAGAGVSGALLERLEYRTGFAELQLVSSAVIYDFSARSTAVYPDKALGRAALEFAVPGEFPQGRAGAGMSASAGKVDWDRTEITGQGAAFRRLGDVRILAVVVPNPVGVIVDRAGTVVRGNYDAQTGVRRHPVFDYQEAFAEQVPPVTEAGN

Measured: binding result

B1: NylCp2 beta subunit (9 kDa) (domain or fragment, Arthrobacter, UniProt Q79F77 267-355, looked up)
chain: TTISAIVTNVRMSPVELNQFAKQVHSSMHRGIQPFHTDMDGDTLFAVTTDEIDLPTTPGSSRGRLSVNATALGAIASEVMWDAVLEAGK
notes: NylCp2, beta subunit made by autocleavage of the 355-residue precursor between Asn266 and Thr267; the same in the wild type and in the mutants crystallised here (all their substitutions lie in the alpha subunit); also called β subunit; source: E. coli JM109, purified with the alpha subunit as the active enzyme
binds: [1] | [2] | [3] | [4] | [5] | [6]
